Assays:
[1] = tested on: male rats of the Wistar Hannover strain; assay: Postprandial glycemia with glutathione synthesis inhibited by buthionine sulfoximine; type: in vivo; details: buthionine sulfoximine injected one hour before the meal; acute
Method: In order to confirm the role of glutathione in the regulation of glycemia and the advantage of α-lactalbumin as a cysteine source from the viewpoint of synthesis of this compound, we used a glutathione-depleted rat model, by inhibiting the synthesis of this compound with buthionine sulfoximine treatment. In these animals, glucose tolerance and insulin sensitivity were measured, and also various parameters related to the oxidative stress state. The replenishing of glutathione stores and the change in the regulation of glycemia were measured in response to diets with various levels of enrichment in α-lactalbumin and cysteine supplementation.
The methodology of example 2, limited to the acute part of the study, was repeated. Four groups of 10 male rats of the Wistar Hannover strain were operated on, after their reception, in order to put in place a venous catheter. This catheter is introduced via the left jugular, descended to the level of the vena cava, and its proximal part interconnects at the cranial level, where it is secured in place so as to allow blood samples to be taken, in the desired amount, from a conscious animal.
One week later, the rats were divided up into 4 groups subjected to the sucrose-rich normal protein meals C0, C1, C2 and alphalac. An injection of buthionine sulfoximine, a […], was given beforehand (one hour before the meal). […]

[2] = tested on: IRS1 (insulin receptor substrate 1) protein; assay: Activation of the insulin signaling pathway (IRS1 immunoprecipitation, Western blotting) at 6 weeks; type: in vivo, male rats of the Wistar Hannover strain; details: muscle; 6 weeks of diet
Method: Four groups of 8 male rats of the Wistar Hannover strain were subjected for 6 weeks to the same sucrose-containing diets as those used in experiments 2 and 3 (P14 containing sucrose, C1, C2 and alphalac). An additional group of 8 rats, this being a non-sucrose control group, fed with a diet P14 containing 14 energy % of total milk proteins without sucrose, was added. This group constitutes the “normal” or “healthy” positive control in the evaluation of the insulin signaling pathway modifications related to the high-sucrose diet.
At 6 weeks, the anesthetized rats receive a dose of 0.750 mU.kg^−1 of insulin, directly injected into the vena cava. This injection makes it possible to light up the insulin signaling pathway and to evaluate the differences in activation between the various groups. 5 min after the injection, the muscle and the liver are removed, ground in a lysis buffer and directly immunoprecipitated with an antibody which recognizes the IRS1 (insulin receptor substrate 1) protein. The immunoprecipitated samples are then loaded onto a gel and then blotted onto a membrane (Western blotting technique). The membranes are successively hybridized with an antiphosphotyrosine antibody (tyrosine phosphorylation of the IRS protein is the first step in the insulin signaling pathway) and then an anti-total IRS1 antibody (FIG. 10).

B1: α-lactalbumin (protein, UniProt P00711 20-142, looked up)
Alpha-lactalbumin: EQLTKCEVFRELKDLKGYGGVSLPEWVCTTFHTSGYDTQAIVQNNDSTEYGLFQINNKIWCKDDQNPHSSNICNISCDKFLDDDLTDDIMCVKKILDKVGINYWLAHKALCSEKLDQWLCEKL
notes: milk serum protein; bovine form 14.2 kD, 123 amino acids
influence of inhibition of glutathione synthesis on the effect on postprandial glycemia [1]: does not modify | expression of the IRS protein [2]: attenuated

From US8648039B2, “Use of alpha-lactalbumin for regulations of glycemia” (Compagnie Laitiere Europeene, priority 2006, dated 2014)
